In paper PMC7311918:

Key:
[1] = biological target: SARS-CoV S 2P trimer (S ectodomain, residues 12-1193) (SARS-CoV) (UniProt P59594); experiment: SEC-MALS
[2] = biological target: MERS-CoV S 2P trimer (S ectodomain, residues 19-1294) (MERS-CoV) (UniProt K9N5Q8); experiment: SEC-MALS

Row | Substance | stoichiometry N [1] | stoichiometry N [2]
1 | SARS-CoV S 2P trimer (S ectodomain, residues 12-1193) (from UniProt P59594 12-1193) (natural protein) | 3 | 
2 | MERS-CoV S 2P trimer (S ectodomain, residues 19-1294) (from UniProt K9N5Q8 19-1294) (natural protein) |  | 3
